Data from the RNAGym collection of RNA variant scans (doi:10.1073/pnas.2313332121).

B1: TPR t1 (parent)
chain: GACCAAUCUGCCCUCAGAGCUCGAGAACAUCUUCGGAUGCAGAGGAGGCAGGCUUCGGUGGCGCGAUAGCGCCAACGUCCUCAACCUCCAAUGCAUCCCACCACAUGAUGAUGCCUGAAGAGCCUUGGUUUUUUG

Variants of: B1
Assay: polymerase ribozyme fitness, log enrichment relative to wild type (log ratio); higher = more active; in vitro selection for triplet polymerase activity
Procedure, shortened: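 Mutant libraries of both subunits of a heterodimeric triplet polymerase ribozyme were PCR-built, transcribed, and selected once in triplicate, with frozen incubation at −7 °C and capture of gel-excised extended constructs on streptavidin beads before RT-PCR. Illumina sequencing of input and output libraries was filtered to genotypes with ≥10 input reads and ≥1 read per output. Fitness is the logarithm of genotype enrichment over wild-type enrichment, using inverse-variance-weighted replicate averages. The logarithm is base 2.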

G36U G45A A119U and G36U U106A are within 0.2 log units of each other in “polymerase ribozyme fitness (log ratio)” value: -1.61 for the first, -1.6 for the second.

Compared with A37G G71U, G36U U59C C86U is lower in “polymerase ribozyme fitness (log ratio)” value: -1.09 for the first, -1.77 for the second.

First: A37U G45A C72G
Second: G36C U81A A84U
The “polymerase ribozyme fitness (log ratio)” value of the first is higher: -1.92 for the first, -2.7 for the second.

Compared with G36C U78C, G36U G60C is higher in “polymerase ribozyme fitness (log ratio)” value: -1.49 for the first, -1.25 for the second.

First: G36U C49U
Second: G36U C56U C97A
The “polymerase ribozyme fitness (log ratio)” value of the first is lower: -2.72 for the first, -0.495 for the second.

Compared with A37G G42A G61A, A37C C76G G117C A121C is lower in “polymerase ribozyme fitness (log ratio)” value: -1.68 for the first, -5.98 for the second.

First: A37C C56G G58A G63C G77C
Second: G36U G48A C70U C82U U133G
The “polymerase ribozyme fitness (log ratio)” value of the first is lower: -3.59 for the first, -1.79 for the second.

Going from A37G G69U A100U C114G to G36U G69U A75U, the “polymerase ribozyme fitness (log ratio)” value rises from -1.72 to -0.726.

Going from A37U G60A to A37G A50C G57A G117C, the “polymerase ribozyme fitness (log ratio)” value falls from -0.626 to -6.92.

Compared with G36C G120C, G36U C40G is lower in “polymerase ribozyme fitness (log ratio)” value: 0.237 for the first, -2.33 for the second.

First: A37U C88U
Second: G36U G61C U126C
The “polymerase ribozyme fitness (log ratio)” value of the first is higher: -0.319 for the first, -4.78 for the second.

First: G36U C76A C98G U109C C114G
Second: A37U G63C G69U C97U C99U G110U
The “polymerase ribozyme fitness (log ratio)” value of the first is lower: -6.07 for the first, -5.81 for the second.

Compared with A37U A74C C88G G110A, G36U A37U is higher in “polymerase ribozyme fitness (log ratio)” value: -3.27 for the first, -1.98 for the second.

Going from G36U G120A U126A U132A to A37U C123U, the “polymerase ribozyme fitness (log ratio)” value rises from -0.708 to 0.6.

Going from G36U C53U G61A A118G to G36U C64U C115G G117U U132A, the “polymerase ribozyme fitness (log ratio)” value falls from -1.48 to -6.32.

Compared with G36U G44C C70U, G36C G128C is lower in “polymerase ribozyme fitness (log ratio)” value: -2.13 for the first, -4.43 for the second.

Compared with G36U C79A, G36U C79U is higher in “polymerase ribozyme fitness (log ratio)” value: -3.02 for the first, -1.62 for the second.

Compared with G36U G110U G120A, G36U A46C is higher in “polymerase ribozyme fitness (log ratio)” value: -2.35 for the first, -2.09 for the second.

Compared with G36C U112A, G36U C80A U81A A121U U130C is higher in “polymerase ribozyme fitness (log ratio)” value: -1.13 for the first, -0.239 for the second.

Compared with G36C G61U A95C, A37U G47U U54C U78G C85U A119U is lower in “polymerase ribozyme fitness (log ratio)” value: -2.42 for the first, -3.1 for the second.

First: A37G C73A U96A
Second: A37U C70U
The “polymerase ribozyme fitness (log ratio)” value of the first is lower: -3.88 for the first, -1.07 for the second.

G36U A50C G60A and A37G G60C G117A are within 0.2 log units of each other in “polymerase ribozyme fitness (log ratio)” value: -2 for the first, -1.95 for the second.

First: A37G G45C C89U A95G
Second: G36U C70G C101A G120A
The “polymerase ribozyme fitness (log ratio)” value of the first is lower: -5.88 for the first, -3.68 for the second.

First: A37U C72U
Second: G36U A41U
The “polymerase ribozyme fitness (log ratio)” value of the first is higher: -1.56 for the first, -2.77 for the second.

First: A37C G120A
Second: G36U G122A U131A
The “polymerase ribozyme fitness (log ratio)” value of the first is higher: 1.02 for the first, -1.83 for the second.

First: G36C G69U A91U C94A G113C
Second: A37G G60U C72G C99A A103G C114U U129C
The “polymerase ribozyme fitness (log ratio)” value of the first is higher: -3.07 for the first, -7.36 for the second.

First: G36U U81C G107C
Second: A37C G61U C73U
The “polymerase ribozyme fitness (log ratio)” value of the first is lower: -5.8 for the first, -1.35 for the second.

A37U G57A U109G and A37G A50U C94U C104U G117C are the same in “polymerase ribozyme fitness (log ratio)” value: -5.89 for the first, -5.89 for the second.

Going from A37G G60A to A37C G60A C102A, the “polymerase ribozyme fitness (log ratio)” value falls from -1.03 to -3.1.

Compared with G36C G51A C70A C101U, A37C C76G is higher in “polymerase ribozyme fitness (log ratio)” value: -7.34 for the first, -0.251 for the second.

Compared with A37C G48C, G36U A50U A118U is higher in “polymerase ribozyme fitness (log ratio)” value: -1.64 for the first, -1.34 for the second.

First: G36U G60C G69U A100U
Second: G36U G45C C89U U132A
The “polymerase ribozyme fitness (log ratio)” value of the first is lower: -4.04 for the first, -2.62 for the second.

Going from A37G G39A C86G to G36C U130G, the “polymerase ribozyme fitness (log ratio)” value rises from -3.13 to -1.39.

A37U G51C C79G A118G and A37G C62A G93U A121G are within 0.2 log units of each other in “polymerase ribozyme fitness (log ratio)” value: -3.37 for the first, -3.43 for the second.

First: A37C G45A G113U
Second: A37G U59G
The “polymerase ribozyme fitness (log ratio)” value of the first is lower: -4.52 for the first, 0.0397 for the second.

Going from A37U A66C A75U G120C to A37U G44A U87G A119U G128C, the “polymerase ribozyme fitness (log ratio)” value falls from -1.07 to -3.53.

Compared with G36U C53A C89G, A37U A46U G47A U130G U131G is lower in “polymerase ribozyme fitness (log ratio)” value: -2.84 for the first, -3.56 for the second.

First: A37U C98A
Second: A37U A41U A50C C115U
The “polymerase ribozyme fitness (log ratio)” value of the first is lower: -5.84 for the first, -4.64 for the second.

First: G36U G127A
Second: G36C G65U C72U G107A G117C G128A U133A
The “polymerase ribozyme fitness (log ratio)” value of the first is higher: -2.27 for the first, -7.08 for the second.

Going from A37G C64U to G36C U106G, the “polymerase ribozyme fitness (log ratio)” value falls from -0.479 to -3.63.

Going from G36U G44A G71U to G36U A84C C85G C86U, the “polymerase ribozyme fitness (log ratio)” value rises from -3.19 to -2.86.

In the case of A37C G63A, the “polymerase ribozyme fitness (log ratio)” value is reported as -0.905.
